# Source: patent publication US20030072795A1 (US Dept. of Health and Human Services, published 2003)
# T1: recombinant full-length human transglutaminase 1 (TGase 1) enzyme (human, UniProt P22735 1-817, constitutively N-myristoylated and S-myristoylated or S-palmitoylated on its amino-terminal 10 kDa portion)
# T1 construct: also called TGase I; TGAaseI
# T1 sequence (looked up): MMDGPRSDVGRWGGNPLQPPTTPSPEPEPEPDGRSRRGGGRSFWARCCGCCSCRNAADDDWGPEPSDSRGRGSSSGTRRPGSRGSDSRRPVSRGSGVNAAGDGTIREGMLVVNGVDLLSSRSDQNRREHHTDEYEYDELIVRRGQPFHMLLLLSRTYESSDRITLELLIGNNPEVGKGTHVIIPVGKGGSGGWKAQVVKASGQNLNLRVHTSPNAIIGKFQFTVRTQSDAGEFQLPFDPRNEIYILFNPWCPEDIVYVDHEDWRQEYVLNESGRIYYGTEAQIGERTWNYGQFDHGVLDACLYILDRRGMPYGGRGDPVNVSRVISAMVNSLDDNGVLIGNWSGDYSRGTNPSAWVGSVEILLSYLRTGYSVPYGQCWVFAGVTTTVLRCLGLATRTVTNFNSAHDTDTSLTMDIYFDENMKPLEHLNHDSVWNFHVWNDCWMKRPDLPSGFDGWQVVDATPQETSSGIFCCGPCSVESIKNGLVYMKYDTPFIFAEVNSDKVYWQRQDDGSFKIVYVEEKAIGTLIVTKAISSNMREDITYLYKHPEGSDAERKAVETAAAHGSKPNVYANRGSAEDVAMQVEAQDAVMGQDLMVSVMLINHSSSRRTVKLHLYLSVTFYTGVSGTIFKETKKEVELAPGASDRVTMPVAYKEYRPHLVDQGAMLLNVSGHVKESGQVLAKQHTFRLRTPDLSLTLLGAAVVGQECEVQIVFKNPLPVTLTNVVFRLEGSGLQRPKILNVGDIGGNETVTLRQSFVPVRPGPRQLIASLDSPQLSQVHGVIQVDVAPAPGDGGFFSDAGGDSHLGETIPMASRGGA
# T2: recombinant human involucrin, P07476
# T2 chain: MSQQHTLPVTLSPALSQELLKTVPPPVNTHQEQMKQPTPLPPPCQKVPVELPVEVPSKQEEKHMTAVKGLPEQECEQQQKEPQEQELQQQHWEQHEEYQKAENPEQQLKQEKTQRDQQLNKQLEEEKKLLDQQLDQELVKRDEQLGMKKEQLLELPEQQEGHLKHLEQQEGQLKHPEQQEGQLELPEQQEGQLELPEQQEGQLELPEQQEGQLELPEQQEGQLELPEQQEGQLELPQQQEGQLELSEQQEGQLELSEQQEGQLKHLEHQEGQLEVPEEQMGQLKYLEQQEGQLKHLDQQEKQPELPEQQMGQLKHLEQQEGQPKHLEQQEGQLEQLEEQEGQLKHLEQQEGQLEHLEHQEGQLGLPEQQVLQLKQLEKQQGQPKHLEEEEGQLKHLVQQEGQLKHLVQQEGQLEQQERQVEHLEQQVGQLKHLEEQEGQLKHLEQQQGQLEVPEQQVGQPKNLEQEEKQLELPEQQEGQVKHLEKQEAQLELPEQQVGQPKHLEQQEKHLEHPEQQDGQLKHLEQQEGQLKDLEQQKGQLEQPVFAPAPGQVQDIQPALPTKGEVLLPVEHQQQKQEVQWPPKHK
# Assays:
# [1] = target: T1, recombinant full-length human …; test: 14C-putrescine labelling of involucrin Gln residues by TGase 1, tryptic peptide sequencing
# Procedure: In this first set of experiments, the Gln residues of involucrin that were cross-linked by recombinant TGase 1 were analyzed in the absence of natural insect cell membranes and SLV. ¹⁴C-putrescine incorporation into involucrin was analyzed following trypsin digestion and separation of tryptic peptides on a C18 reverse phase HPLC column. Labeled peptide peaks were dried and identified by sequencing. The PTH derivative of (-glutamylputrescine isopeptide formed in the TGase reaction was identified as a distinct peak in the Porton LP 3000 gas-phase sequencer. (FIG. 7). A total of 40 tryptic peptides were reliably separated, of which 29 (arrows) were labeled by ¹⁴C-putrescine in a reaction with solubilized recombinant TGase 1 and involucrin. (FIG. 8A). Sequencing identified […] labeled Gln residues (Table 2, panel A), with a total of about 20 mol of putrescine incorporated/mol of involucrin (Table 2, panel A). In contrast to the 29 Gln residues found to be involved in the binding of involucrin to soluble TGase 1 in the experiments above, membrane-bound TGase 1 binds to involucrin through five specific Gln residues, as discussed in the following section.
# [2] = target: recombinant human small proline rich protein 2 (SPR2)
# [3] = target: T2, recombinant human involucrin, P07476
binding result [1],Binder,KM(app) of the protein substrate; 14C-putrescine incorporation by SLV-bound TGase 1 (0% PS) [2] [µM],KM(app) of the protein substrate; 14C-putrescine incorporation by SLV-bound TGase 1 (15% PS) [2] [µM],KM(app) of the protein substrate; 14C-putrescine incorporation by solubilized TGase 1 [2] [µM],fold increase of KM after attachment of TGase 1 to SLV (0 or 15% PS) [2],KM(app) of the protein substrate; 14C-putrescine incorporation by SLV-bound TGase 1 (15% PS) [3] [µM],KM(app) of the protein substrate; 14C-putrescine incorporation by solubilized TGase 1 [3] [µM],"fold decrease of KM, SLV with 15% PS against solubilized TGase 1 and soluble involucrin [3]","kinetic parameters for involucrin as substrate, SLV-bound TGase 1 (0% PS) [3]",KM(app) of the protein substrate; 14C-putrescine incorporation by SLV-bound TGase 1 (0% PS) (succinylated casein) [µM],KM(app) of the protein substrate; 14C-putrescine incorporation by SLV-bound TGase 1 (15% PS) (succinylated casein) [µM],KM(app) of the protein substrate; 14C-putrescine incorporation by solubilized TGase 1 (succinylated casein) [µM]
binds,"recombinant human involucrin (other, UniProt P07476 1-585, looked up, Substrate of TGase 1) MSQQHTLPVTLSPALSQELLKTVPPPVNTHQEQMKQPTPLPPPCQKVPVELPVEVPSKQEEKHMTAVKGLPEQECEQQQKEPQEQELQQQHWEQHEEYQKAENPEQQLKQEKTQRDQQLNKQLEEEKKLLDQQLDQELVKRDEQLGMKKEQLLELPEQQEGHLKHLEQQEGQLKHPEQQEGQLELPEQQEGQLELPEQQEGQLELPEQQEGQLELPEQQEGQLELPEQQEGQLELPQQQEGQLELSEQQEGQLELSEQQEGQLKHLEHQEGQLEVPEEQMGQLKYLEQQEGQLKHLDQQEKQPELPEQQMGQLKHLEQQEGQPKHLEQQEGQLEQLEEQEGQLKHLEQQEGQLEHLEHQEGQLGLPEQQVLQLKQLEKQQGQPKHLEEEEGQLKHLVQQEGQLKHLVQQEGQLEQQERQVEHLEQQVGQLKHLEEQEGQLKHLEQQQGQLEVPEQQVGQPKNLEQEEKQLELPEQQEGQVKHLEKQEAQLELPEQQVGQPKHLEQQEKHLEHPEQQDGQLKHLEQQEGQLKDLEQQKGQLEQPVFAPAPGQVQDIQPALPTKGEVLLPVEHQQQKQEVQWPPKHK",–,–,–,–,–,–,–,–,–,–,–
–,recombinant full-length human transglutaminase 1 (TGase 1) enzyme (protein) MMDGPRSDVGRWGGNPLQPPTTPSPEPEPEPDGRSRRGGGRSFWARCCGCCSCRNAADDDWGPEPSDSRGRGSSSGTRRPGSRGSDSRRPVSRGSGVNAAGDGTIREGMLVVNGVDLLSSRSDQNRREHHTDEYEYDELIVRRGQPFHMLLLLSRTYESSDRITLELLIGNNPEVGKGTHVIIPVGKGGSGGWKAQVVKASGQNLNLRVHTSPNAIIGKFQFTVRTQSDAGEFQLPFDPRNEIYILFNPWCPEDIVYVDHEDWRQEYVLNESGRIYYGTEAQIGERTWNYGQFDHGVLDACLYILDRRGMPYGGRGDPVNVSRVISAMVNSLDDNGVLIGNWSGDYSRGTNPSAWVGSVEILLSYLRTGYSVPYGQCWVFAGVTTTVLRCLGLATRTVTNFNSAHDTDTSLTMDIYFDENMKPLEHLNHDSVWNFHVWNDCWMKRPDLPSGFDGWQVVDATPQETSSGIFCCGPCSVESIKNGLVYMKYDTPFIFAEVNSDKVYWQRQDDGSFKIVYVEEKAIGTLIVTKAISSNMREDITYLYKHPEGSDAERKAVETAAAHGSKPNVYANRGSAEDVAMQVEAQDAVMGQDLMVSVMLINHSSSRRTVKLHLYLSVTFYTGVSGTIFKETKKEVELAPGASDRVTMPVAYKEYRPHLVDQGAMLLNVSGHVKESGQVLAKQHTFRLRTPDLSLTLLGAAVVGQECEVQIVFKNPLPVTLTNVVFRLEGSGLQRPKILNVGDIGGNETVTLRQSFVPVRPGPRQLIASLDSPQLSQVHGVIQVDVAPAPGDGGFFSDAGGDSHLGETIPMASRGGA,25.3,22.8,13.2,differed only by about a two-fold increase in KM if the PS content of SLV was 0 or 15%,2.9,114,an approximately 40-fold decreased KM,The kinetic parameters for involucrin as a substrate were immeasurably low when the SLV were formulated in the absence of PS,138,145,61.4
